In general, Kd refers to the free concentration of one partner at which half of the binding sites on the other are occupied at equilibrium, for simple one-to-one binding. As a reminder, the koff is the first-order rate constant of dissociation. The kon is a measure of how fast the partners come together.

The values below come from patent publication US20260167721A1 (ABLEXIS, published 2026).

Test [1] has as its target T1, recombinant human CD3 epsilon/gamma heterodimer (human, UniProt P07766 23-126; P09693 23-116).
T1 construct: Recombinant protein in solution (200-50 nM) in the Octet assay; also called hCD3 E/G
Description: Octet BLI, mAb on FAB2G sensor, hCD3 E/G 200-50 nM; R^2 0.96. A general note: In BLI a coated tip is dipped into the sample, and binding shifts an interference pattern.

Test [2] has as its target T2, recombinant human CD3 epsilon/delta heterodimer (human, UniProt P07766 23-126; P04234 22-105).
T2 construct: Recombinant protein in solution (200-50 nM) in the Octet assay; also called hCD3 E/D; human CD3E/D
The test is described as follows: Octet BLI, mAb on FAB2G sensor, hCD3 E/D 200-50 nM; R^2 0.96.

Test [3] concerns the target T2, recombinant human CD3 epsilon/delta …. The test is described as follows: Octet BLI, mAb on FAB2G sensor, hCD3 E/D 200-50 nM; R^2 0.94.
Test [4] concerns the target T1, recombinant human CD3 epsilon/gamma …. The test is described as follows: Octet BLI, mAb on FAB2G sensor, hCD3 E/G 200-50 nM; R^2 0.94.
In test [5] the target is CD3 on effector cells (human Pan-T or PBMC) (human, UniProt P07766 23-207; P04234 22-171; P09693 23-182; P20963 22-164). Description: cell-based or functional assay.
The target of test [6] is recombinant CD3 proteins. Description: Octet (BLI), bispecific antibody against recombinant CD3 proteins.
For test [7], the target named is T3, human CD3 (TCR/CD3 complex) on the cell surface (human, UniProt P07766 23-207; P09693 23-182; P04234 22-171; P20963 22-164).
T3 construct: whole, on cells; also called CD3 on Pan-T cells; CD3 on Jurkat WT cells
The test is described as follows: flow cytometry, Pan-T cells, 1 ug/mL. (A flow cytometer gives signals particle by particle.)

The target of test [8] is T4, recombinant CD3 proteins (UniProt P07766 23-126).
T4 construct: elsewhere it uses human CD3 E/D and E/G heterodimers
Description: Octet BLI, recombinant CD3; Full R^2 0.995.

Test [9] deals with T3, human CD3 (TCR/CD3 complex) on the cell …. The test is described as follows: flow cytometry, gMFI Jurkat WT over Jurkat TCRb KO, 1 ug/mL.
The target is the same in test [10]. The test is described as follows: flow cytometry, Jurkat WT cells, 10 ug/mL.
Test [11] has the same target. The test is described as follows: flow cytometry, gMFI Jurkat WT over Jurkat TCRb KO, 10 ug/mL.
Test [12] shares this target. Description: flow cytometry, Jurkat WT cells, 1 ug/mL.
Test [13] shares this target. Description: flow cytometry, Pan-T cells, 10 ug/mL.

T3 sequence (P07766 23-207, chain 1 of 4): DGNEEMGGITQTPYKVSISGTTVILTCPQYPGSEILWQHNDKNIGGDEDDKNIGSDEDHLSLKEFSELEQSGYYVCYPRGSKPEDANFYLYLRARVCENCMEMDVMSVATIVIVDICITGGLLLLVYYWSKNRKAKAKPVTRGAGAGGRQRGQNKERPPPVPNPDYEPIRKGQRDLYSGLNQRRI
T3 sequence (P09693 23-182, chain 2 of 4): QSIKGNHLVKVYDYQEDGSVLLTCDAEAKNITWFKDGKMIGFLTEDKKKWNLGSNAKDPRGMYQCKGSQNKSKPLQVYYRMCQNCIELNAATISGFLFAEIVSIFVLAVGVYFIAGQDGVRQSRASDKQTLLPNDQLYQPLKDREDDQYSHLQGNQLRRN
T3 sequence (P04234 22-171, chain 3 of 4): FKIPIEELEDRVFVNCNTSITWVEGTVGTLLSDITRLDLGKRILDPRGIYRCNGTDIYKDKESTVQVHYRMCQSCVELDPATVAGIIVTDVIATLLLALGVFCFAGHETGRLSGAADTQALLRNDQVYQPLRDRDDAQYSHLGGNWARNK
T3 sequence (P20963 22-164, chain 4 of 4): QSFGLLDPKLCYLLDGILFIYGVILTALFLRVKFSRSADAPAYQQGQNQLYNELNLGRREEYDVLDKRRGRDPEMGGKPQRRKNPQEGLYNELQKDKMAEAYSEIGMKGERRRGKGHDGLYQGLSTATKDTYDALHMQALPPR
T4 sequence (P07766 23-126): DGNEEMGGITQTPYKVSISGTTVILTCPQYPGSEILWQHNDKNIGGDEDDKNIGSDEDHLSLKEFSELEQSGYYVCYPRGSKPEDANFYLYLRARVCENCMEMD
T2 sequence (P07766 23-126, stated change not applied, chain 1 of 2): as the sequence (P07766 23-126) above
T2 sequence (P04234 22-105, stated change not applied, chain 2 of 2): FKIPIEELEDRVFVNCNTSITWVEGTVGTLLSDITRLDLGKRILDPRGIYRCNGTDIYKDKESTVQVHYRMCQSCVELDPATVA
T1 sequence (P07766 23-126, chain 1 of 2): as the sequence (P07766 23-126) above
T1 sequence (P09693 23-116, chain 2 of 2): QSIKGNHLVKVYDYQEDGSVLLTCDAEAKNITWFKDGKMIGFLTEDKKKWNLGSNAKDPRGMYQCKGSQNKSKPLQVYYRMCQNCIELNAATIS
Chain of CD3 on effector cells (human Pan-T or PBMC) (P07766 23-207, chain 1 of 4): as the sequence (P07766 23-207, chain 1 of 4) above
Chain of CD3 on effector cells (human Pan-T or PBMC) (P04234 22-171, chain 2 of 4): as the sequence (P04234 22-171, chain 3 of 4) above
Chain of CD3 on effector cells (human Pan-T or PBMC) (P09693 23-182, chain 3 of 4): as the sequence (P09693 23-182, chain 2 of 4) above
Chain of CD3 on effector cells (human Pan-T or PBMC) (P20963 22-164, chain 4 of 4): as the sequence (P20963 22-164, chain 4 of 4) above

B1: ABL-CD3-33 (antibody, V domains shown)
VH: EVQLVESGGGLVKPGGSLRLSCAASGFTFSSYSMNWVRQAPGKGLEWVSSISRSSSYIYYADSVKGRFTISRDNAKNSLYLQMNSLRAEDTAVYYCAREPPTLGMDYWGQGTLVTVSS
VL: NFMLTQPHSVSESPGKTVTISCTRSSGSIASNYVQWYQQRPGSSPTTVIYEDNQRPSGVPDRFSGSIDSSSNSASLTISGLKTEDEADYYCQSYYNSNRVFGGGTKLTVL
notes: Chimeric hybridoma mAb: human V, CH1, upper hinge; mouse middle hinge, CH2, CH3
As to B1, in [1], the Kd was 60 nM, the koff was 0.0155 s⁻¹ and the kon was 259000 M⁻¹ s⁻¹. In test [2], the Kd came to 56.2 nM, the Response stood at 0.33, the koff turned out to be 0.0206 s⁻¹ and the kon turned out to be 366000 M⁻¹ s⁻¹.

B2: ABL-CD3-29 (antibody, V domains shown)
VH: EVQLVQSGAEVKKPGESLKISCKGSGYSFISYWIAWVRQMPGKGLEWMGIIYPGDSETRYRPSFQGQVTISADKSINTAYLQWSSLKAADTAMYYCARQGAYDGFDIWGQGTMVTVSS
VL: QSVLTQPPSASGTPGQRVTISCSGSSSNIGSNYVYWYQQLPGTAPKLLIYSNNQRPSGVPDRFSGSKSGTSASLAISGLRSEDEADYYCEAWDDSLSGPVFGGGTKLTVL
notes: as for B1
Turning to B2, in [3], the Kd amounted to 2.63 nM, the koff came out at 0.000816 s⁻¹ and the kon was determined as 310000 M⁻¹ s⁻¹. Moreover, in test [4], the Kd was found to be 2.5 nM, the Response was 0.44, the koff amounted to 0.000852 s⁻¹ and the kon is 341000 M⁻¹ s⁻¹.

B3: Control Humanized anti-CD3 (high affinity) scFv-Fc knob/TM, as bispecific with gemtuzumab (bispecific antibody)
scFv: EVQLVESGGGLVQPGGSLRLSCAASGFTFSTYAMNWVRQAPGKGLEWVGRIRSKYNNYATYYADSVKGRFTISRDDSKNTLYLQMNSLRAEDTAVYYCVRHGNFGDSYVSWFAYWGQGTLVTVSSGKPGSGKPGSGKPGSGKPGSQAVVTQEPSLTVSPGGTVTLTCGSSTGAVTTSNYANWVQQKPGKSPRGLIGGTNKRAPGVPARFSGSLLGGKAALTISGAQPEDEADYYCALWYSNHWVFGGGTKLTVLGGGGSDKTHTCPPCPAPEFEGGPSVFLFPPKPKDTLMISRTPEVTCVVVDVSHEDPEVKFNWYVDGVEVHNAKTKPREEQYNSTYRVVSVLTVLHQDWLNGKEYKCKVSNKALPASIEKTISKAKGQPREPQVYTLPPCREEMTKNQVSLWCLVKGFYPSDIAVEWESNGQPENNYKTTPPVLDSDGSFFLYSKLTVDKSRWQQGNVFSCSVMHEALHNHYTQKSLSLSPGK
heavy: EVQLVQSGAEVKKPGSSVKVSCKASGYTITDSNIHWVRQAPGQSLEWIGYIYPYNGGTDYNQKFKNRATLTVDNPTNTAYMELSSLRSEDTAFYYCVNGNPWLAYWGQGTLVTVSSASTKGPSVFPLAPSSKSTSGGTAALGCLVKDYFPEPVTVSWNSGALTSGVHTFPAVLQSSGLYSLSSVVTVPSSSLGTQTYICNVNHKPSNTKVDKRVEPKSCDKTHTCPPCPAPEFEGGPSVFLFPPKPKDTLMISRTPEVTCVVVDVSHEDPEVKFNWYVDGVEVHNAKTKPREEQYNSTYRVVSVLTVLHQDWLNGKEYKCKVSNKALPASIEKTISKAKGQPREPQVCTLPPSREEMTKNQVSLSCAVKGFYPSDIAVEWESNGQPENNYKTTPPVLDSDGSFFLVSKLTVDKSRWQQGNVFSCSVMHEALHNRFTQKSLSLSPGK
light: DIQLTQSPSTLSASVGDRVTITCRASESLDNYGIRFLTWFQQKPGKAPKLLMYAASNQGSGVPSRFSGSGSGTEFTLTISSLQPDDFATYYCQQTKEVPWSFGQGTKVEVKRTVAAPSVFIFPPSDEQLKSGTASVVCLLNNFYPREAKVQWKVDNALQSGNSQESVTEQDSKDSTYSLSSTLTLSKADYEKHKVYACEVTHQGLSSPVTKSFNRGEC
For B3, in test [5], the “RTCC EC50 (nM), KILR HL-60 T Cell Redirection cytotoxic assay with CD33-expressing target cells” value stood at 0.03 nM. In addition, in the test with recombinant CD3 proteins [6], the Kd was found to be 20.1 nM, the Response was 0.73, the koff turned out to be 0.00652 s⁻¹ and the kon was determined as 325000 M⁻¹ s⁻¹.

B4: Control Humanized anti-CD3 (low affinity) scFv-Fc knob/TM, as bispecific with gemtuzumab (bispecific antibody)
scFv: EVQLVESGGGLVQPGGSLRLSCAASGFTFSTYAMNWVRQAPGKGLEWVGRIRSKYNNYATYYADSVKGRFTISRDDSKNTLYLQMNSLRAEDTAVYYCVRHGNFGDSYVSWFDYWGQGTLVTVSSGKPGSGKPGSGKPGSGKPGSQAVVTQEPSLTVSPGGTVTLTCGSSTGAVTTSNYANWVQQKPGKSPRGLIGGTNKRAPGVPARFSGSLLGGKAALTISGAQPEDEADYYCALWYSNHWVFGGGTKLTVLGGGGSDKTHTCPPCPAPEFEGGPSVFLFPPKPKDTLMISRTPEVTCVVVDVSHEDPEVKFNWYVDGVEVHNAKTKPREEQYNSTYRVVSVLTVLHQDWLNGKEYKCKVSNKALPASIEKTISKAKGQPREPQVYTLPPCREEMTKNQVSLWCLVKGFYPSDIAVEWESNGQPENNYKTTPPVLDSDGSFFLYSKLTVDKSRWQQGNVFSCSVMHEALHNHYTQKSLSLSPGK
heavy: EVQLVQSGAEVKKPGSSVKVSCKASGYTITDSNIHWVRQAPGQSLEWIGYIYPYNGGTDYNQKFKNRATLTVDNPTNTAYMELSSLRSEDTAFYYCVNGNPWLAYWGQGTLVTVSSASTKGPSVFPLAPSSKSTSGGTAALGCLVKDYFPEPVTVSWNSGALTSGVHTFPAVLQSSGLYSLSSVVTVPSSSLGTQTYICNVNHKPSNTKVDKRVEPKSCDKTHTCPPCPAPEFEGGPSVFLFPPKPKDTLMISRTPEVTCVVVDVSHEDPEVKFNWYVDGVEVHNAKTKPREEQYNSTYRVVSVLTVLHQDWLNGKEYKCKVSNKALPASIEKTISKAKGQPREPQVCTLPPSREEMTKNQVSLSCAVKGFYPSDIAVEWESNGQPENNYKTTPPVLDSDGSFFLVSKLTVDKSRWQQGNVFSCSVMHEALHNRFTQKSLSLSPGK
light: DIQLTQSPSTLSASVGDRVTITCRASESLDNYGIRFLTWFQQKPGKAPKLLMYAASNQGSGVPSRFSGSGSGTEFTLTISSLQPDDFATYYCQQTKEVPWSFGQGTKVEVKRTVAAPSVFIFPPSDEQLKSGTASVVCLLNNFYPREAKVQWKVDNALQSGNSQESVTEQDSKDSTYSLSSTLTLSKADYEKHKVYACEVTHQGLSSPVTKSFNRGEC
Consider B4, for which, in [5], the “RTCC EC50 (nM), KILR HL-60 T Cell Redirection cytotoxic assay with CD33-expressing target cells” value worked out at 1.48 nM. Besides, in the test with recombinant CD3 proteins [6], the Kd was 50.3 nM, the Response is 0.3, the koff was 0.0121 s⁻¹ and the kon was 241000 M⁻¹ s⁻¹.

B5: CD3 × CD33-BspAb126 (bispecific antibody)
chain 1: QVQLQESGPGLVKPSETLSLTCTVSGGSINSYYWSWIRQPAGKCLEWIGRIYTSGSTNYNPSLKSRVTMSVDTSKKQFSLKLSSVTAADTAVYYCARERISRLYFDYWGQGILVTVSSGGGGSGGGGSGGGGSGGGGSNFMLTQPHSVSESPGKTVTISCTRSSGSIASNYVQWYQQRPGSSPTTVIYEDNQRPSGVPDRFSGSIDSSSNSASLTISGLKTEDEADYYCQSYDRSNRVFGCGTKLTVLDKTHTCPPCPAPEFEGGPSVFLFPPKPKDTLMISRTPEVTCVVVDVSHEDPEVKFNWYVDGVEVHNAKTKPREEQYNSTYRVVSVLTVLHQDWLNGKEYKCKVSNKALPASIEKTISKAKGQPREPQVYTLPPCREEMTKNQVSLWCLVKGFYPSDIAVEWESNGQPENNYKTTPPVLDSDGSFFLYSKLTVDKSRWQQGNVFSCSVMHEALHNHYTQKSLSLSPGK
chain 2: EVQLVQSGAEVKKPGSSVKVSCKASGYTITDSNIHWVRQAPGQSLEWIGYIYPYNGGTDYNQKFKNRATLTVDNPTNTAYMELSSLRSEDTAFYYCVNGNPWLAYWGQGTLVTVSSASTKGPSVFPLAPSSKSTSGGTAALGCLVKDYFPEPVTVSWNSGALTSGVHTFPAVLQSSGLYSLSSVVTVPSSSLGTQTYICNVNHKPSNTKVDKRVEPKSCDKTHTCPPCPAPEFEGGPSVFLFPPKPKDTLMISRTPEVTCVVVDVSHEDPEVKFNWYVDGVEVHNAKTKPREEQYNSTYRVVSVLTVLHQDWLNGKEYKCKVSNKALPASIEKTISKAKGQPREPQVCTLPPSREEMTKNQVSLSCAVKGFYPSDIAVEWESNGQPENNYKTTPPVLDSDGSFFLVSKLTVDKSRWQQGNVFSCSVMHEALHNRFTQKSLSLSPGK
chain 3: DIQLTQSPSTLSASVGDRVTITCRASESLDNYGIRFLTWFQQKPGKAPKLLMYAASNQGSGVPSRFSGSGSGTEFTLTISSLQPDDFATYYCQQTKEVPWSFGQGTKVEVKRTVAAPSVFIFPPSDEQLKSGTASVVCLLNNFYPREAKVQWKVDNALQSGNSQESVTEQDSKDSTYSLSSTLTLSKADYEKHKVYACEVTHQGLSSPVTKSFNRGEC
On to B5, for which the “% Positive” value in test [7] amounted to 98.3%; in test [13] it was 99.7%. Further, the gMFI was 56000 gMFI in [7], 26000 gMFI in test [10], 15700 gMFI in [12] and 161000 gMFI in [13]. The Kd with recombinant CD3 proteins [8] worked out at 78.4 nM. Besides, the koff in the test with recombinant CD3 proteins [8] came to 0.0117 s⁻¹. Moreover, the kon in the test with recombinant CD3 proteins [8] amounted to 149000 M⁻¹ s⁻¹. Besides, the “Jurkat WT/KO (Fold)” value in test [9] is 5.3 fold; in test [11], 8.8 fold.
